Test results taken from paper PMC10850359, “A mediator of OsbZIP46 deactivation and degradation negatively regulates seed dormancy in rice”.

T1: His::ABI5 (Oryza sativa (rice), UniProt Q8RZ35 1-388)
T1 sequence: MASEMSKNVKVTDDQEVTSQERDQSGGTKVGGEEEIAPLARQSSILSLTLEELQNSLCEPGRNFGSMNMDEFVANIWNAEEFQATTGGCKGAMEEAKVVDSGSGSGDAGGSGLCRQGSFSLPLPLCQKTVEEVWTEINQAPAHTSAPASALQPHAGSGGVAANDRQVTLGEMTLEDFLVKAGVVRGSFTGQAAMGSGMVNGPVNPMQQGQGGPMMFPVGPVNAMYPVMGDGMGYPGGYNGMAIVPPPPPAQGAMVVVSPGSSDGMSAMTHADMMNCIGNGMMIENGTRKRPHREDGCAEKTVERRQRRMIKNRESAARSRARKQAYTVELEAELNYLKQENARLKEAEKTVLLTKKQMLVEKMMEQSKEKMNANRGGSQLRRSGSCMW


Biological target: T1, His::ABI5
Assay: EMSA; Beyotime Chemiluminescent EMSA Kit; 2 ug His::ABI5, 1 uL biotin probe (1 ng), 25 C, 20 min; unlabeled probe (1 ng) as competitor; buffer, salt and pH not stated
Conditions: protein: recombinant; tags: His (pET28a); chain copies: 2; label: biotin; blunt

| Binder | binding result |
| --- | --- |
| EMSA-LEA3-bio (dsDNA) DNA 1: GATGACTTGGCATGCTCACGTGGCATTTTTTTTGGTCTAA DNA 2: TTAGACCAAAAAAAATGCCACGTGAGCATGCCAAGTCATC | binds |
| EMSA-EM1-bio (dsDNA) DNA 1: CATAGCTTGCGCACGTACGTGTCGCGCTCCGGCGG DNA 2: CCGCCGGAGCGCGACACGTACGTGCGCAAGCTATG | binds |
